The source of these data is IntAct's records for PubMed 35512704.

B1: Mothers against decapentaplegic homolog 4 (Homo sapiens), Q13485 (parent)
chain: MDNMSITNTPTSNDACLSIVHSLMCHRQGGESETFAKRAIESLVKKLKEKKDELDSLITAITTNGAHPSKCVTIQRTLDGRLQVAGRKGFPHVIYARLWRWPDLHKNELKHVKYCQYAFDLKCDSVCVNPYHYERVVSPGIDLSGLTLQSNAPSSMMVKDEYVHDFEGQPSLSTEGHSIQTIQHPPSNRASTETYSTPALLAPSESNATSTANFPNIPVASTSQPASILGGSHSEGLLQIASGPQPGQQQNGFTGQPATYHHNSTTTWTGSRTAPYTPNLPHHQNGHLQHHPPMPPHPGHYWPVHNELAFQPPISNHPAPEYWCSIAYFEMDVQVGETFKVPSSCPIVTVDGYVDPSGGDRFCLGQLSNVHRTEAIERARLHIGKGVQLECKGEGDVWVRCLSDHAVFVQSYYLDREAGRAPGDAVHKIYPSAYIKVFDLRQCHRQMQQQAATAQAAAAAQAAAVAGNIPGPGSVGGIAPAISLSAAAGIGVDDLRRLCILRMSFVKGWGPDYPRQSIKETPCWIEIHLHRALQLLDEVLHTMPIADPQPLD
partner: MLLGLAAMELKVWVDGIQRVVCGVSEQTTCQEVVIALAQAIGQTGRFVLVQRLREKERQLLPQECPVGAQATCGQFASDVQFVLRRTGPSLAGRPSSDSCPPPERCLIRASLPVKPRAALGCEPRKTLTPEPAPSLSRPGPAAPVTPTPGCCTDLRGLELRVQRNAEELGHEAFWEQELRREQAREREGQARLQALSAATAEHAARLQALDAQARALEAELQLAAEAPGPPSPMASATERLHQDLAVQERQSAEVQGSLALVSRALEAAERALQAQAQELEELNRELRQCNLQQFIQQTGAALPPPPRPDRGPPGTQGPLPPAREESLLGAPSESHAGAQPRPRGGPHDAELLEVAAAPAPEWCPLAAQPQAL
B2: Mothers against decapentaplegic homolog 4 (Homo sapiens), Q13485 (parent)
chain: B1 chain
partner: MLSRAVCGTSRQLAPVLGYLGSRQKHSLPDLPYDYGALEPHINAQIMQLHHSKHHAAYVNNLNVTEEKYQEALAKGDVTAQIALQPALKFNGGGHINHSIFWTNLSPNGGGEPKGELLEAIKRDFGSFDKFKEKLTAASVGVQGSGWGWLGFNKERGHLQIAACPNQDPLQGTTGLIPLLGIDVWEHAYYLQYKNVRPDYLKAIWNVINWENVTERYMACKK
B3: Mothers against decapentaplegic homolog 4 (Homo sapiens), Q13485 (parent)
chain: B1 chain
partner: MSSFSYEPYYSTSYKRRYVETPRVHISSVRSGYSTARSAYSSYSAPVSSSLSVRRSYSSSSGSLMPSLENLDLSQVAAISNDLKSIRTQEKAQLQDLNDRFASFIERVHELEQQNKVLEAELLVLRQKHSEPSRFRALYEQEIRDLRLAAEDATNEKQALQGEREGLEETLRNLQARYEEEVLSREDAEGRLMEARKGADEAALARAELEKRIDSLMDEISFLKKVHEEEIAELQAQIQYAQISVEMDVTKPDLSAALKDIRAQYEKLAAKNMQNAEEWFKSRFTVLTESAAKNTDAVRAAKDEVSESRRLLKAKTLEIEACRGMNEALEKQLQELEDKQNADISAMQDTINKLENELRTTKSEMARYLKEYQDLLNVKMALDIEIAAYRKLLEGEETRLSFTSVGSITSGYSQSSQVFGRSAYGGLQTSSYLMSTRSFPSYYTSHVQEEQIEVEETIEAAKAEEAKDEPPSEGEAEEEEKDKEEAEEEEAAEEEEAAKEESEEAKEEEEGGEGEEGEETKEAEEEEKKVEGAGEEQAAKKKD
B4: Mothers against decapentaplegic homolog 4 (Homo sapiens), Q13485 (parent)
chain: B1 chain
partner: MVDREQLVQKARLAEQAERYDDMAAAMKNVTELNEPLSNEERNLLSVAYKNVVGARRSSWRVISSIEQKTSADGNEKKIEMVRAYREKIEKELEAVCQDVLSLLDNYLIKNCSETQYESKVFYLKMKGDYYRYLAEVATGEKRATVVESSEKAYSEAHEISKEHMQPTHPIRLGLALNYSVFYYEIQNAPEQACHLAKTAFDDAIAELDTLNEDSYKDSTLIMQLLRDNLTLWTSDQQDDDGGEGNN
B5: Mothers against decapentaplegic homolog 4 (Homo sapiens), Q13485 (parent)
chain: B1 chain
partner: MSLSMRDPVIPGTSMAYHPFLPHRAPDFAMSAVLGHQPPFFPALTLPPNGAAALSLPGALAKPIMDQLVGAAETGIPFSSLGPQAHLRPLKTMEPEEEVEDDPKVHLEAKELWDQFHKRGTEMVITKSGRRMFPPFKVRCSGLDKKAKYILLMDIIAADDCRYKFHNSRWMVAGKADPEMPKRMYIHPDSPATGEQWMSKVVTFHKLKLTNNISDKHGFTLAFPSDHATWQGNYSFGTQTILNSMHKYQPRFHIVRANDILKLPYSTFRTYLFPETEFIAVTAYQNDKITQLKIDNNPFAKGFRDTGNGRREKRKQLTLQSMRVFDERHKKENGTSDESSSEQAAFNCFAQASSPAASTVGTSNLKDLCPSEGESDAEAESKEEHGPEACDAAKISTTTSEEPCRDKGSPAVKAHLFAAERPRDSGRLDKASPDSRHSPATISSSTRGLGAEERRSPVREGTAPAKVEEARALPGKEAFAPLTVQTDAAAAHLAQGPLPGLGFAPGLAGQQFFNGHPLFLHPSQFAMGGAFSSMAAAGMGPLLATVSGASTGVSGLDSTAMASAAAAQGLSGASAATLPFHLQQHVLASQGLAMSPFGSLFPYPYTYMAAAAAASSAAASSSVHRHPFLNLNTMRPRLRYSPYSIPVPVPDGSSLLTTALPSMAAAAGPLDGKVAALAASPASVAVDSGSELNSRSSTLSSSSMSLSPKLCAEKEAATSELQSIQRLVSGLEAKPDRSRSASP

The variants in the first assay derive from B1. The following applies: with rasf7_human RASSF7, Q02833.
With R361C, the “effect of a mutation on the interaction” value is on record as “with no effect”.

In the next assay the parent is B1. The following applies: with rasf7_human RASSF7, Q02833. This is another data set of the same source.
Consider R361H, for which the “effect of a mutation on the interaction” value was “with no effect”.

The variants in a further assay derive from B2. Conditions: with sodm_human SOD2, P04179.
On to G386D, for which the “effect of a mutation on the interaction” value is “with no effect”.

A further assay covers variants of B2. Conditions: with sodm_human SOD2, P04179. This is another data set of the same source.
As for D351H, the “effect of a mutation on the interaction” value is “with no effect”.

Another assay covers variants of B2. The following applies: with sodm_human SOD2, P04179. The source holds these as a separate data set.
R361H: the “effect of a mutation on the interaction” value is reported as “with no effect”.

Variants of B2 are the subject of the next assay. Conditions: with sodm_human SOD2, P04179. The source holds these as a separate data set.
In the case of R361C, the “effect of a mutation on the interaction” value is recorded as “with no effect”.

In another assay the parent is B3. Conditions: with nfl_human NEFL.
On to G386D, for which the “effect of a mutation on the interaction” value is listed as “with no effect”.

Variants of B4 are the subject of a further assay. The following applies: with 1433g_human YWHAG.
On to D351H, for which the “effect of a mutation on the interaction” value is reported as “with no effect”.

The variants in a further assay derive from B4. The following applies: with 1433g_human YWHAG. This is another data set of the same source.
With R361C, the “effect of a mutation on the interaction” value is listed as “with no effect”.

Variants of B5 are the subject of the next assay. Conditions: with tbx3_human TBX3, O15119.
D351H: the “effect of a mutation on the interaction” value is “with no effect”.

The variants in another assay derive from B5. The following applies: with tbx3_human TBX3, O15119. The source holds these as a separate data set.
For the variant G386D, the “effect of a mutation on the interaction” value is reported as “with no effect”.

The variants in the next assay derive from B5. The following applies: with tbx3_human TBX3, O15119. The source holds these as a separate data set.
For R361C, the “effect of a mutation on the interaction” value is “with no effect”.
